# Data from paper PMC5737856 (Nucleic Acids Research, 2017).
# T1: catalytic SNF2/HELIC region of PICH (human)
# T1 sequence (Q2NKX8 whole entry, looked up): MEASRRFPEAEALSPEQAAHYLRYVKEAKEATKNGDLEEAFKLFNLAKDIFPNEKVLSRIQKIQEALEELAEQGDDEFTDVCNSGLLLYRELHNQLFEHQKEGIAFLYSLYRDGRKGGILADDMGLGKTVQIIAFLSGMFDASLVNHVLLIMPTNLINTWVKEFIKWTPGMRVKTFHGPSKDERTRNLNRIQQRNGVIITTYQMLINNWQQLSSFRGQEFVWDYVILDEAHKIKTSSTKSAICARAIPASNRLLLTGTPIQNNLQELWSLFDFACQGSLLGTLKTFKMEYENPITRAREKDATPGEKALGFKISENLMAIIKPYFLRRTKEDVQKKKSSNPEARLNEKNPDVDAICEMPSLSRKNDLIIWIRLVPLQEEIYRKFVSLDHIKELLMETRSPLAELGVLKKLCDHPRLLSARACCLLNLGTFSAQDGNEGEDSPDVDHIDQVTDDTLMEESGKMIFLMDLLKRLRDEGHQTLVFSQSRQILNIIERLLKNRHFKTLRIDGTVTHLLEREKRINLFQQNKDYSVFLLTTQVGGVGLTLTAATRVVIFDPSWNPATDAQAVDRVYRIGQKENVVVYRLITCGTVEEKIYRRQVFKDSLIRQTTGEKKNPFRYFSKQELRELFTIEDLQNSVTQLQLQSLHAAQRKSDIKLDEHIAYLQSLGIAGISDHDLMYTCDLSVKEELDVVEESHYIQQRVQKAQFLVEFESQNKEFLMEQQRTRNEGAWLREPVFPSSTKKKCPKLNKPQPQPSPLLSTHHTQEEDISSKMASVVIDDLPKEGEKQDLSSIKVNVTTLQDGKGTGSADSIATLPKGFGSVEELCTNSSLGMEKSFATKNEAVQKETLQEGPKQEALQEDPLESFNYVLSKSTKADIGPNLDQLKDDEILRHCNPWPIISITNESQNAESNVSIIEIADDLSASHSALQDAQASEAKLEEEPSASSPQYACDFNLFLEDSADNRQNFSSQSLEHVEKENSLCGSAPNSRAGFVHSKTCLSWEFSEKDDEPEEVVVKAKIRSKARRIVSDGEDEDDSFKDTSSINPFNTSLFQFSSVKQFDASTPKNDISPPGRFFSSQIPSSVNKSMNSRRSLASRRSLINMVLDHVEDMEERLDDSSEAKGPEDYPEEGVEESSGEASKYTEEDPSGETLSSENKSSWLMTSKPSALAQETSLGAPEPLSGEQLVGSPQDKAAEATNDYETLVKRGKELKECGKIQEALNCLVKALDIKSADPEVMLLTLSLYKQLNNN
# T2: PICH, full length (recombinant) (human, UniProt Q2NKX8 1-1250)
# T2 sequence (looked up): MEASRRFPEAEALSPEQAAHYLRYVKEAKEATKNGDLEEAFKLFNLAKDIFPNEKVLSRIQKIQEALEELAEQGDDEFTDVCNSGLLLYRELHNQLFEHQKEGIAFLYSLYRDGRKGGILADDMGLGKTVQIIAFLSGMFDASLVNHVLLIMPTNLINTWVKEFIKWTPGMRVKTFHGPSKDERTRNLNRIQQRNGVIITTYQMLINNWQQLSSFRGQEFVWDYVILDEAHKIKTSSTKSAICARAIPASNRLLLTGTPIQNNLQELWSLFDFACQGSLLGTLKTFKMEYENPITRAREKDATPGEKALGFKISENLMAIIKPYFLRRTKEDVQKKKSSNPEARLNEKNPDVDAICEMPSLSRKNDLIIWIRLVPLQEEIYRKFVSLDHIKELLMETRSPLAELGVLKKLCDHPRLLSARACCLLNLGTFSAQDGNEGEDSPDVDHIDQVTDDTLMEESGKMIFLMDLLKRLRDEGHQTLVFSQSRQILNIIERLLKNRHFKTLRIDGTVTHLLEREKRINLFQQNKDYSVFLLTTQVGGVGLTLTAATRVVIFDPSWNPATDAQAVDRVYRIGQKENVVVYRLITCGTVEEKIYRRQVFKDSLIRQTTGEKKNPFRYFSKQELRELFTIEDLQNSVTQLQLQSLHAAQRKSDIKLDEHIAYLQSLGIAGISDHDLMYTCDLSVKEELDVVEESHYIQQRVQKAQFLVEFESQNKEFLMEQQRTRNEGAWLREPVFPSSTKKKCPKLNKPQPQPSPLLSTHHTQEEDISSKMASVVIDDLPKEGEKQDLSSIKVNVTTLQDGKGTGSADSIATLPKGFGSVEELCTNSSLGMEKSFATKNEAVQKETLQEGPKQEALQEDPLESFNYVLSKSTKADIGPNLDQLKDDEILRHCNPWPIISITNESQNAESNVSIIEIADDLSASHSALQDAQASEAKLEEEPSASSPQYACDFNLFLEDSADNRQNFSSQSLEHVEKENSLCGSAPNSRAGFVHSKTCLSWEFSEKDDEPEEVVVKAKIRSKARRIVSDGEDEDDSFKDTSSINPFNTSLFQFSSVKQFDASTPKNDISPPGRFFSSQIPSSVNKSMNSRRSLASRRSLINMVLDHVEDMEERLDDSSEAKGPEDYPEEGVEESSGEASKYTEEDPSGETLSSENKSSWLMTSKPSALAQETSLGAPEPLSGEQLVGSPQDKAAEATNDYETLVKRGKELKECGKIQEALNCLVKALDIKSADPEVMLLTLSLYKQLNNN
# B1: BEN domain 1 of BEND3 (domain or fragment, human)
# chain: MVAKFQPPPEYQLTAAELKQIVDQSLSGGDLACRLLVQLFPELFSDVDFSRGCSACGFAAKRKLESLHLQLIRNYVEVYYPSVKDTAVWQAECLPQLNDFFSRFWAQREMED
# Assays:
# [1] = molecular target: the molecule itself; assay: SEC + native gel or EMSA
# [2] = molecular target: T1, catalytic SNF2/HELIC region of PICH (human); assay: MST
# [3] = molecular target: B1; assay: MST
# [4] = molecular target: T2, PICH, full length (recombinant); assay: MST
# [5] = molecular target: T2, PICH, full length (recombinant); assay: SPR
binder,measurement,setting,value
"isolated N-terminal region of BEND3 (residues 1-534) (domain or fragment, human, UniProt Q5T5X7 1-534, looked up) MNSTEFTEDVEEVLKSITVKVETEAEDAALDCSVNSRTSEKHSVDSVLTALQDSSKRKQLVSDGLLDSVPGVKRRRLIPEALLAGMRNRENSSPCQGNGEQAGRGRSLGNVWPGEEEPCNDATTPSYKKPLYGISHKIMEKKNPPSGDLLNVYELFEKANASNSPSSLRLLNEPQKRDCGSTGAGTDNDPNIYFLIQKMFYMLNTLTSNMSQLHSKVDLLSLEVSRIKKQVSPTEMVAKFQPPPEYQLTAAELKQIVDQSLSGGDLACRLLVQLFPELFSDVDFSRGCSACGFAAKRKLESLHLQLIRNYVEVYYPSVKDTAVWQAECLPQLNDFFSRFWAQREMEDSQPSGQVASFFEAEQVDPGHFLDNKDQEEALSLDRSSTIASDHVVDTQDLTEFLDEASSPGEFAVFLLHRLFPELFDHRKLGEQYSCYGDGGKQELDPQRLQIIRNYTEIYFPDMQEEEAWLQQCAQRINDELEGLGLDAGSEGDPPRDDCYDSSSLPDDISVVKVEDSFEGERPGRRSKKIWLVPI",binding result,[1],binds
BEN domain 3 of BEND3 (domain or fragment) VPGADCLLSKEQLRSIYESSLSIGNFASRLLVHLFPELFTHENLRKQYNCSGSLGKKQLDPSRIKLIRHYVQLLYPRAKNDRVWTLEFVGKLDERCRRRDTEQ,Kd,[2],1500 nM
"N-terminal TPR motif of PICH (domain or fragment, human) AEALSPEQAAHYLRYVKEAKEATKNGDLEEAFKLFNLAKDIFPNEKVLSRIQKIQEA",Kd,[3],1200 ± 250 nM
B1,Kd,[4],200 ± 250 nM
"BEND3, full length (from HEK293 cells) (natural protein, human, UniProt Q5T5X7 1-828, looked up) MNSTEFTEDVEEVLKSITVKVETEAEDAALDCSVNSRTSEKHSVDSVLTALQDSSKRKQLVSDGLLDSVPGVKRRRLIPEALLAGMRNRENSSPCQGNGEQAGRGRSLGNVWPGEEEPCNDATTPSYKKPLYGISHKIMEKKNPPSGDLLNVYELFEKANASNSPSSLRLLNEPQKRDCGSTGAGTDNDPNIYFLIQKMFYMLNTLTSNMSQLHSKVDLLSLEVSRIKKQVSPTEMVAKFQPPPEYQLTAAELKQIVDQSLSGGDLACRLLVQLFPELFSDVDFSRGCSACGFAAKRKLESLHLQLIRNYVEVYYPSVKDTAVWQAECLPQLNDFFSRFWAQREMEDSQPSGQVASFFEAEQVDPGHFLDNKDQEEALSLDRSSTIASDHVVDTQDLTEFLDEASSPGEFAVFLLHRLFPELFDHRKLGEQYSCYGDGGKQELDPQRLQIIRNYTEIYFPDMQEEEAWLQQCAQRINDELEGLGLDAGSEGDPPRDDCYDSSSLPDDISVVKVEDSFEGERPGRRSKKIWLVPIDFDKLEIPQPDFEVPGADCLLSKEQLRSIYESSLSIGNFASRLLVHLFPELFTHENLRKQYNCSGSLGKKQLDPSRIKLIRHYVQLLYPRAKNDRVWTLEFVGKLDERCRRRDTEQRRSYQQQRKVHVPGPECRDLTSYAINPERFREEFEGPPLPPERSSKDFCKIPLDELVVPSPDFPVPSPYLLSDKEVREIVQQSLSVGNFAARLLVRLFPELFTAENLRLQYNHSGACNKKQLDPTRLRLIRHYVEAVYPVEKMEEVWHYECIPSIDERCRRPNRKKCDILKKAKKVEK",stoichiometry N,[1],8
same,Kd,[5],700 ± 300 nM
